Experimental data taken from publication PMC8163212 (Chemical Science, 2020).

Target: the molecule itself
Assay: SEC

B1: UVR8 mutant W198/250/302F (6Wd + 4Wc), on the W400F background (receptor)
chain: MAEDMAADEVTAPPRKVLIISAGASHSVALLSGDIVCSWGRGEDGQLGHGDAEDRPSPTQLSALDGHQIVSVTCGADHTVAYSQSGMEVYSWGWGDFGRLGHGNSSDLFTPLPIKALHGIRIKQIACGDSHCLAVTMEGEVQSWGRNQNGQLGLGDTEDSLVPQKIQAFEGIRIKMVAAGAEHTAAVTEDGDLYGWGFGRYGNLGLGDRTDRLVPERVTSTGGEKMSMVACGWRHTISVSYSGALYTYGFSKYGQLGHGDLEDHLIPHKLEALSNSFISQISGGWRHTMALTSDGKLYGWGFNKFGQVGVGNNLDQCSPVQVRFPDDQKVVQVSCGWRHTLAVTERNNVFAWGRGTNGQLGIGESVDRNFPKIIEALSVDGASGQHIESSNIDPSSGKSFVSPAERYAVVPDETGLTDGSSKGNGGDISVPQTDVKRVRI
B1: binds.
